# Assay results from patent US20160152995A1, “METHODS AND COMPOSITIONS TO IMPROVE THE SPREAD OF CHEMICAL SIGNALS IN PLANTS” (PIONEER HI-BRED INTERNATIONAL, INC., priority 2013, published 2016).
# B1: L8-3F09 (protein)
# chain: MARLDKSKVINSALELLNEVGIEGLTTRKLAQKLGVEQPTLYWHVKNKRALLDALAIEMMDRHQTHYSPLEGESWQDFLRNNAKSLRCALLSHRDGAKVCLGTRWTEQQYESAENMLAFLTQQGFSLENALYALTAVRVFTLGWVLFDQESQVAKEERETPTTDSMPPLLRQAWELKDHQGAEPAFLFGLELIIAGLEKQLKRESGS
# modifications: Sulfonylurea responsive repressor
# B2: L6-1B03 (protein)
# chain: MGSRLDKSKVINSALELLNEVGIEGLTTRKLAQKLGVEQPTLYWHVKNKRALLDALAIEMMDRHATHICPLEGESWQDFLRNNAKSMRCALLSHRDGAKVCLGTRWTEQQYEAAENMLAFLCQQGFSLENALYAVSAVRVFTLGCVLFDQESQVAKEERETPTTASMPPLLRQAWELKDHQGAEPAFLFGLELIICGLEKQLKCESGS
# modifications: Sulfonylurea responsive repressor
# B3: L6-2D07 (protein)
# chain: MGSRLDKSKVINSALELLNEVGIEGLTTRKLAQKLGVEQPTLYWHVKNKRALLDALAIEMMDRHQTHFCPLEGESWQDFLRNTAKSMRCALLSHRDGAKVCLGTRWTEQQYETAENMLAFLCQQGFSLENALYAMSAVRVFTLGCVLFDQESQVAKEERETPTTASMPPLVRQAWELKDHQGAEPAFLFGLELIICGLEKQLKCESGS
# modifications: Sulfonylurea responsive repressor
# B4: L6-5F05 (protein)
# chain: MGSRLDKSKVINSALELLNEVGIEGLTTRKLAQKLGVEQPTLYWHVKNKRALLDALAIEMMDRHATHICPLEGESWQDFLRNNAKSMRCALLSHRDGAKVCLGTRWTEQQYEAAENQLAFLCQQGFSLENALYAVSAVRVFTLGCVLFDQELQVAKEERETPTTASMPPLLRQAWELKDHQGAEPAFLFGLELIICGLEKQLKCESGS
# modifications: Sulfonylurea responsive repressor
# B5: L6-4D10: library L6 clone, parent of library L8 hits (protein)
# chain: MGSRLDKSKVINSALELLNEVGIEGLTTRKLAQKLGVEQPTLYWHVKNKRALLDALAIEMMDRHQTHYCPLEGESWQDFLRNNAKSMRCALLSHRDGAKVCLGTRWTEKQYESAENMLAFLCQQGFSLENALYAVSAVRVFTLGCVLFDQESQVAKEERETPTTASMPPLLRQAWELKDHQGAEPAFLFGLELIICGLEKQLKCESGS
# modifications: Sulfonylurea responsive repressor
# notes: library L6 clone, parent of library L8 hits
# B6: L6-3H02: SuR polypeptide, SEQ ID NO:94 (protein)
# chain: MGSRLDKSKVINSALELLNEVGIEGLTTRKLAQKLGVEQPTLYWHVKNKRALLDALAIEMMDRHATHYCPLEGESWQDFLRNTAKSMRCALLSHRDGAKVCLGTRWTEQHYESAENMLAFLCQQGFSLENALYAVSAVRVFTLGCVLFDQESQVAKEERETPTTASMPPLVRQAWELKVHQGAEPAFLFGLELIICGLEKQLKCESGS
# modifications: Sulfonylurea responsive repressor
# B7: L6-5H12 (protein)
# chain: MGSRLDKSKVINSALELLNEVGIEGLTTRKLAQKLGVEQPTLYWHVKNKRALLDALAIEMMDRHATHYCPLEGESWQDFLRNNAKSMRCALLSHRDGAKVCLGTRWTEKQYETAENQLAFLCQQGFSLENALYAMSAVRVFTLGCVLFDQELQVAKEERETPTTASMPPLVRQAWELKDHQGAEPAFLFGLELIICGLEKQLKCESGS
# modifications: Sulfonylurea responsive repressor
# B8: L6-5H06 (protein)
# chain: MGSRLDKSKVINSALELLNEVGIEGLTTRKLAQKLGVEQPTLYWHVKNKRALLDALAIEMMDRHQTHICPLEGESWQDFLRNNAKSMRCALLSHRDGAKVCLGTRWTEKQYETAENMLAFLCQQGFSLENALYAVSAVRVFTLGCVLFDQELQVAKEERETPTTASMPPLVRQAWELKDHQGAEPAFLFGLELIICGLEKQLKCESGS
# modifications: Sulfonylurea responsive repressor
# B9: L6-6F07 (protein)
# chain: MGSRLDKSKVINSALELLNEVGIEGLTTRKLAQKLGVEQPTLYWHVKNKRALLDALAIEMMDRHATHLCPLEGESWQDFLRNTAKSMRCALLSHRDGAKVCLGTRWTEQQYESAENMLAFLCQQGFSLENALYAMSAVRVFTLGCVLFDQESQVAKEERETPTTASMPPLLRQAWELKDHQGAEPAFLFGLELIICGLEKQLKCESGS
# modifications: Sulfonylurea responsive repressor
# B10: L6-2C09 (protein)
# chain: MGSRLDKSKVINSALELLNEVGIEGLTTRKLAQKLGVEQPTLYWHVKNKRALLDALAIEMMDRHQTHYCPLEGESWQDFLRNTAKSMRCALLSHRDGAKVCLGTRWTEQLYETAENQLAFLCQQGFSLENALYAMSAVRVFTLGCVLFDQELQVAKEERETPTTASMPPLLRQAWELKDHQGAEPAFLFGLELIICGLEKQLKCESGS
# modifications: Sulfonylurea responsive repressor
# B11: L6-5G06 (protein)
# chain: MGSRLDKSKVINSALELLNEVGIEGLTTRKLAQKLGVEQPTLYWHVKNKRALLDALAIEMMDRHQTHYCPLEGESWQDFLRNNAKSMRCALLSHRDGAKVCLGTRWTEQQYETAENQLAFLCQQGFSLENALYAVSAVRVFTLGCVLFDQELQVAKEERETPTTASMPPLLRQGWELKDHQGAEPAFLFGLELIICGLEKQLKCESGS
# modifications: Sulfonylurea responsive repressor
# Test system: E. coli assay strain Km3
# Format: cell-based
# Conditions: for IND = induction with 200 ppb Cs at 24 hrs (blue colony color intensity thru ImageJ analysis) / F. IND = fold induction: induction with 200 ppb Cs at 24 hrs/repression at 48 hrs / REP = repression measured without inducer after 48 hrs (blue colony color intensity thru ImageJ analysis): library L8 hits, M9 Xgal colony assay; for IND = induction with 200 ppb Cs at 24 hrs (blue colony color intensity thru ImageJ analysis): 200 ppb Chlorsulfuron; for F. IND = fold induction: induction with 200 ppb Cs at 24 hrs/repression at 48 hrs: ratio IND (200 ppb Cs, 24 hrs) / REP (48 hrs); for 0.2 ppm 48 hr (colony color intensity) / Control 84 hr (colony color intensity, background): M9 assay plates, ImageJ colony color intensity; for 0.2 ppm 48 hr (colony color intensity): 0.2 ppm chlorsulfuron, 48 hr at 30° C.; for Control 84 hr (colony color intensity, background): no inducer, 84 hr at 30° C.; for 0.2 ppm 48 hr/Control 84 hr: ratio of colony color with 0.2 ppm chlorsulfuron at 48 hr over no-inducer control at 84 hr
# Method: Library L6 was assembled, rescued, ligated into pVER7314, transformed into E. coli KM3 and plated out onto LB carbenicillin/kanamycin, and carbenicillin only control media as before. Library plates were then picked into 42 384-well microtiter plates (˜16,000 clones) containing 60 μl LB carbenicillin (Cb) broth per well. After overnight growth at 37° C. the cultures were stamped onto M9 assay plates containing no inducer, 0.2 ppm, and 2.0 ppm chlorsulfuron as test inducer. Following incubation at 30° C. for ˜48 hrs, putative hits responding to chlorsulfuron treatment as determined by increased blue colony color were re-arrayed into six 96-well microtiter plates and used to stamp a fresh set of M9 assay plates to confirm the above results. For a more detailed analysis of the relative induction by chlorsulfuron, digital photographs were taken of the plates after various time points of incubation at 30° C. and colony color intensity measured using the digital image analysis freeware program ImageJ (Rasband, US National Institutes of Health, Bethesda, Md., USA, rsb.info.nih.gov/ij/, 1997-2007). […] From this analysis sequence-activity relationships were derived. […] Briefly, C at position 100, and Q at positions 108 and 109 strongly correlated with activation, while R at position 138, L at position 170, and A or G at position 173 were highly preferred in clones with the lowest background activity. […] This information will aid in the design of further libraries to improve responsiveness to chlorsulfuron.
# Library L8 construction and screening. Fourth round shuffling incorporated the best diversity from Rd3 shuffling (BB1860) as well as computational diversity (Table 14). As diversity was very high the library oligo mix was spiked into the parental hit variant oligo mix (5, 10, and 25% mixes) to titer down the number of residue changes per clone. In addition, to varying residues for Cs activity, seven residues (C68, C86, C88, C121, C144, C195, and C203) were varied with TetR family phylogenetic substitutions in an attempt to reduce the number of cysteine residues in the repressor. The PCR assembled libraries were cloned Sac1/Asc1 into pVER7334. This plasmid encodes PBAD promoter controlled expression of a plant optimized TetR DNA binding domain fused to the wt ligand binding domain of TetR(B) encoded by native Tn10 sequence on a Sac1 to Asc1 fragment. Approximately 15,000 clones were screened for blue colony color on the M9 Xgal assay plates +/−200 ppb Chlorsulfuron (Cs). Clones were ranked by ratio of color with inducer after 24 hrs incubation over colony color without inducer for 48 hrs of incubation. The sequence trend in the overall larger population of hits (first re-array) was that L55, R104, W105 and L170 were maintained while the C144A substitution was highly preferred. Sequence trends within the hit population were then noted with respect to repression, induction and fold induction (which corrects for leakiness).
# Mutagenesis reactions were transformed into library strain Km3 and 96 colonies tested for substitution by DNA sequence analysis. Substitutions representing each possible residue at each position were then re-arrayed in triplicate onto M9 X-gal assay plates with 0, 20 and 200 ppb Chlorsulfuron. Plates were incubated at 37° C. for 24 and 48 hrs prior to imaging. Residue substitutions were then ranked by activation (emphasis on 20 ppb Cs) and repression characteristics (emphasis on 48 hr time point). The mutation with the greatest impact on activity was substitution of residue N82 to phenylalanine or tyrosine. […] All other preferred substitutions shown in Table 18 either improved repression or improved sensitivity to inducer without compromising repressor function. Certain residues were indispensible to function such as R104, W105, and W174 as substitutions were not allowed. Other residue positions such as R138 and K177 were also flagged as critical since functional substitutions were extremely limited. […]
Molecule,IND = induction with 200 ppb Cs at 24 hrs (blue colony color intensity thru ImageJ analysis),F. IND = fold induction: induction with 200 ppb Cs at 24 hrs/repression at 48 hrs,REP = repression measured without inducer after 48 hrs (blue colony color intensity thru ImageJ analysis),0.2 ppm 48 hr (colony color intensity),"Control 84 hr (colony color intensity, background)",0.2 ppm 48 hr/Control 84 hr
B1,5.6,9.7,0.6,,,
B2,,,,30.0,6.6,4.6
B3,,,,20.0,5.8,3.4
B4,,,,22.0,5.4,4.1
B5,0.2,0.4,0.6,18.4,5.0,3.7
B6,,,,15.8,5.6,2.8
B7,,,,23.7,5.7,4.2
B8,,,,13.7,5.1,2.7
B9,,,,11.6,5.1,2.3
B10,,,,13.6,5.2,2.6
B11,,,,34.4,7.0,4.9
